Data on 7 molecules can be found in patent US20240109971A1 (MONASH UNIVERSITY, published 2024).

The target of assay [1] is T1, Peptide 2 (amino acid position 18-46 of the human CCR6) (human, biotinylated).
T1 construct: also called AA 18 to 46
T1 peptide: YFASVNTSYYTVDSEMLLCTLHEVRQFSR
Kind of assay: ELISA, biotinylated peptide on a streptavidin-coated plate. As to the method:
(§1) Two overlapping biotinylated peptides spanning the entire N-terminal region of human CCR6 were then synthesized and used in more defined anti-CCR6 mAb epitope mapping studies. Peptide 1 ([…], SEQ ID NO: 2) corresponds to amino acid position 1-28 of the human CCR6 and Peptide 2 ([…], SEQ ID NO: 101) corresponds to amino acid position 18-46 of the human CCR6. Briefly, multiwell plates were coated with streptavidin and washed before the biotinylated peptides were added to separate wells and incubated to facilitate binding of the peptides to the plate. Different anti-human CCR6 antibodies were then tested by adding the respective antibodies to the wells of the plate and incubating the plate. An isotype control and buffer only were included as negative controls. Following washing, appropriate conjugated antibodies were added and the plates were incubated. The plates were washed again and binding of the antibodies to the immobilised peptides was visualised (FIGS. 8 and 9).
(In general: ELISA stands for enzyme-linked immunosorbent assay.)

Assay [2] has as its target T2, Peptide 1 (amino acid position 1-28 of the human CCR6) (human, biotinylated).
T2 construct: also called first 28 AA
T2 peptide: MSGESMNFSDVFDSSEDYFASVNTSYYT
Described as above. As for the experimental part:
as §1

The target in the next assay is T3, hCXCR2 (human, UniProt P25025 1-360).
T3 construct: whole, on cells; also called human CXCR2 transfected L1.2 cells
T3 sequence (looked up): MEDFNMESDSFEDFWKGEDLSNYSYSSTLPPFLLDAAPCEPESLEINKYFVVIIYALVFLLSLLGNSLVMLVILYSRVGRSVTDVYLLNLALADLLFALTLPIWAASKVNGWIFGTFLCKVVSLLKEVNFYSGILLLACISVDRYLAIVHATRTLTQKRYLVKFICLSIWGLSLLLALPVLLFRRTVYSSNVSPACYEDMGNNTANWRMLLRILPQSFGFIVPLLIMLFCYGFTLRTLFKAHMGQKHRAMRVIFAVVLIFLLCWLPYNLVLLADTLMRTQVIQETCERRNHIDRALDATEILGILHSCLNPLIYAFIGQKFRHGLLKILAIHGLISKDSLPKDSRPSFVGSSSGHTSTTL
Kind of assay: flow cytometry, hybridoma culture supernatant on L1.2/hCXCR2 transfectants. A general note: A flow cytometer gives signals particle by particle.

In another assay the target is T4, hCXCR3 (human, UniProt P49682 1-368).
T4 construct: whole, on cells; also called human CXCR3 transfected L1.2 cells
T4 sequence (looked up): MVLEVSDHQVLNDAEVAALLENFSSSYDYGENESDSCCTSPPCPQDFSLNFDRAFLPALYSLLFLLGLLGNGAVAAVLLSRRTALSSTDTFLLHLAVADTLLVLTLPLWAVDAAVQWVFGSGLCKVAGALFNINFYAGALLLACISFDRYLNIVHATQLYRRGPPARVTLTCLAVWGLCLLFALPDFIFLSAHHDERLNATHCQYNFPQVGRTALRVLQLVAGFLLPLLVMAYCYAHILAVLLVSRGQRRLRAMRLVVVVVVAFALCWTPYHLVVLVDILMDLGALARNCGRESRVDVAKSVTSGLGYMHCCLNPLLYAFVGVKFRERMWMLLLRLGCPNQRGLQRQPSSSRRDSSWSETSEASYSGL
The assay can be described thus: flow cytometry, hybridoma culture supernatant on L1.2/hCXCR3 transfectants.

Assay [3] concerns the target T5, human CCR6 (human, UniProt P51684 1-374).
T5 construct: also called hCCR6; CD196
T5 sequence: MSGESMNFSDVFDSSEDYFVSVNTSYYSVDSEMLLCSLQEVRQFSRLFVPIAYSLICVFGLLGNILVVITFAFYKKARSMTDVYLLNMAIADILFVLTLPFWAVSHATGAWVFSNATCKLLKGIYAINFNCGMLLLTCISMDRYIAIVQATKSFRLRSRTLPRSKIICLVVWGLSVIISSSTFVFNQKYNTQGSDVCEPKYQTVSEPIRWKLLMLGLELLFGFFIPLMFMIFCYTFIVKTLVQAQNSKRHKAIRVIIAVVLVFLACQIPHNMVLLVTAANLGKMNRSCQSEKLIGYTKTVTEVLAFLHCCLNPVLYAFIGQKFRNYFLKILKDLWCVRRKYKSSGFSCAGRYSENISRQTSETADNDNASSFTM
The assay can be described thus: flow cytometry, hybridoma culture supernatant on L1.2/hCCR6 transfectants.

In another assay the target is T6, hCXCR1 (human, UniProt P25024 1-350).
T6 construct: whole, on cells; also called hCXCRI; human CXCR1 transfected L1.2 cells
T6 sequence (looked up): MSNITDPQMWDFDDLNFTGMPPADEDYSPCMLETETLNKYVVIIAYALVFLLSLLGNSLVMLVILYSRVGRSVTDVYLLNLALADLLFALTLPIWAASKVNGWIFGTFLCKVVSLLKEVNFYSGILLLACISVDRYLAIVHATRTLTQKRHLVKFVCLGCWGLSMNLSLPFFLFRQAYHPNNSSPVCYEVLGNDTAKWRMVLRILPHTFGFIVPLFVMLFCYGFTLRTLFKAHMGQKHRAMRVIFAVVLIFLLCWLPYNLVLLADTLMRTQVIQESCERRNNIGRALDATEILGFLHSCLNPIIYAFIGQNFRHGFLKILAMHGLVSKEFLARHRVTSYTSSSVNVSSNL
Kind of assay: flow cytometry, hybridoma culture supernatant on L1.2/hCXCR1 transfectants.

In assay [4] the target is T5, human CCR6. Kind of assay: competition with 125I-MIP-3α for L1.2/hCCR6 transfectants, partially purified mAb. As to the method: For ligand binding analysis, recombinant human CCL20 (MIP3α) (“ligand”) was obtained from Peprotech (New Jersey, USA). […] Cells were washed once in binding buffer (50 mM Hepes, pH 7.5, 1 mM CaCl, 5 mM MgCb, 0.5% BSA) and resuspended in binding buffer at a concentration of 2.5×10^6 cells/ml. Cold Purified monoclonal antibody or diluted hybridoma culture medium (cold competitor) was added to a 96-well plate followed by an equal volume (40 μl) binding buffer containing 1×10^5 cells. Cells and competitor were preincubated at room temperature for 15 min. Then radiolabeled ligand (final concentration 0.5-2 nM) was added to each well to give a final reaction volume of 120 μl. After a 60-min incubation at room temperature, the cells were washed three times with 1 ml of binding buffer containing 150 mM NaCl. The radioactivity (amount of bound label) in the cell pellets was counted in a TopCount liquid scintillation counter (Packard). Non-specific background binding was calculated by incubating cells […]. Samples were assayed in duplicate.
After incubation and washing the amount of label bound to cells was measured and the percentage inhibition determined by comparison to a control reaction with no added antibody (FIGS. 1 and 5).

B1: AB7 (antibody, V domains shown)
VH: QDQLQQSGVALARPGASVKLSCKASEYTFKSFGLGWVKQRPGQGLEWIGEIYPRSGNTYYNEKVKGKVRLTADKSSNSVYMEFRSLTSEDSAVYFCARSPYDGYFDYWGQGTTLTVS
VL: DVVMTHSPLSLPVSLGDQASISCRSSQSLLHINGNTYLHWYLQKPGQSPKLLIYRVSNRLSGVPDRFSGSGSGTDFTLKISRVEAEDLGVYFCSQSTHVPRTFGGGTKLEIKR
notes: Mouse hybridoma antibody; also called clone AB7
For the molecule B1, the binding result in assay [1] and in assay [2] was “binds” each time.

B2: AB3 (antibody, V domains shown)
VH: EVNLVESGGGLVQPGGSLKLSCAASGFTFSDYYLYWVRQTPEKRLEWVTYITNGGGRTYYSDTVRGRFTISRDNAKNTLYLQMSRLKSEDTAMYYCASPPLGGAWFGYWGQGTLVTVS
VL: DVLMTQTPLSLPVSLGDQASISCRSSQSIVHSNGNTYLEWYLQKPGQSPKLLIYKVSKRFSGVPDRFSGSGSGTDFTLKISRVEAEDLGVYYCFQGSHVPLTFGAGTKLELKR
notes: Mouse hybridoma antibody, isotype IgG1; also called AB3-N21
As to B2, the binding result with hCXCR2 is “no binding (tested: not given (culture supernatant))”; in the assay with hCXCR3, “no binding (tested: not given (culture supernatant))”; with human CCR6 [3], “binds”; with hCXCR1, “no binding (tested: not given (culture supernatant))”; in assay [2] it was “binds”.

B3: mouse AB6 mAb (antibody, V domains shown)
VH: EVKLVESGGGLVQPGGSLKLSCAASGFPFSDYYLYWVRQTPEKRLEWVAYITNGVGRTYYSDSVKGRFTISRDNAKNTLYLQMSRLKSEDTSMYYCTSPPLGGAWFAYWGQGTLVTVS
VL: DVLMTQTPLSLPVSLGDQASISCRSSQSIVHSNGNTYLEWYLQKPGQSPKLLIYKVSKRFSGVPDRFSGSGSGTDFTLKISRVEAEDLGVYYCFQGSHVPLTFGAGTKLELKR
notes: Mouse hybridoma antibody, isotype IgG2b; also called mAB6; AB6-K5
With B3, the binding result is given as “no binding (tested: not given (culture supernatant))” in the assay with hCXCR2, “no binding (tested: not given (culture supernatant))” with hCXCR3, “no binding (tested: not given (culture supernatant))” with hCXCR1 and “binds” in assay [2]. Besides, the “IC50 (read off the curve)” value with human CCR6 [4] is approximately 7 nM.

B4: AB4 (antibody, V domains shown)
VH: EVNLVESGGGLVQPGGSLKLSCAASGFTFSDYYMYWVRQTPEKRLEWVTYITNGGGRTYYSDTVRGRFTISRDNAKNTLYLQMSRLKSEDTAMYYCASPPLGGAWFGYWGQGTLVTVS
VL: DVLMTQTPLSLPVSLGDQASISCRSSQSLVHSNGNTYLEWYLQKPGQSPKLLIYKVSKRFSGVPDRFSGSGSGTDFTLKISRVGAEDLGVYYCFQGSHVPLTFGAGTKLELKR
notes: Mouse hybridoma antibody, isotype IgG2b; also called AB4-K15
For the molecule B4, the binding result with hCXCR2 is on record as “no binding (tested: not given (culture supernatant))”; with hCXCR3, “no binding (tested: not given (culture supernatant))”; with human CCR6 [3], “binds”; with hCXCR1, “no binding (tested: not given (culture supernatant))”.

B5: AB11 (antibody, V domains shown)
VH: EVNLVESGGGLVQPGGSLILSCEASGFSFSDYYMYWVRQTPEKRLEWVTYITNGGGRTYYSDAIRGRFTISRDNARNTLYLQMSRLKSEDTAMYYCTSPPLGGAWFGYWGQGTLVTVS
VL: DVSMTQTPLSLPVSLGDQASISCRSSQSLVHSNGNTYLEWYLQKPGQSPKLLIYKVSKRFSGVPDRFSGSGSGTDFTLKISRVEAEDLGVYYCFQGSHVPLTFGAGTKLELKR
notes: Mouse hybridoma antibody, isotype IgG1; also called AB11-M9
Take B5: the binding result (with human CCR6 [4]; in assay [2]) was “binds” throughout.

B6: AB2 (antibody, V domains shown)
VH: EVNLVESGGGLVQPGGSLKLSCEASGFSFSDYYMYWVRQTPEKRLEWVTYITNGGGRTYYSDTIRGRFTISRDNARNTLYLQMSRLKSEDTAMYYCTSPPLGGAWFGYWGQGTLVTVS
VL: DVSMTQTPLSLPVSLGDQASISCRSSQSLVHSNGNTYLEWYLQKPGQSPKLLIYKVSKRFSGVPDRFSGSGSGTDFTLKISRVEAEDLGVYYCFQGSHVPLTFGAGTKLELKR
notes: Mouse hybridoma antibody, isotype IgG1; also called AB2-O17
As to B6, the binding result (with human CCR6 [4]; in assay [2]) was “binds” in each case.

B7: AB5 (antibody, V domains shown)
VH: EVNLVESGGGLVQPGGSLKLSCEASGFTFSDYYMYWVRQTPEKRLEWVTYITNGAGRTYYSDTVRGRFTISRDNAKNTLYLQMSRLKSEDTAMYYCASPPLGGAWFAYWGQGTLVTVS
VL: DVSMTQTPLSLPVSLGDQASISCRSSQSLVHSNGNTYLEWYLQKPGQSPKLLIYKVSKRFSGVPDRFSGSGSGTDFTLKISRVEAEDLGVYYCFQGSHVPLTFGAGTKLELKR
notes: Mouse hybridoma antibody, isotype IgG1; also called AB5-M19
Regarding B7, the binding result with human CCR6 [4] is listed as “binds”.
